Source: the Human Domainome abundance scans (Beltran et al. 2025)
± gives the uncertainty stated by the source.

B1: Zinc finger homeobox protein 3, residues 2643 to 2698; numbered along this chain, Q15911 (parent)
chain: RLRTTITPEQLEILYQKYLLDSNPTRKMLDHIAHEVGLKKRVVQVWFQNTRARERK

Variants of: B1
Assay: abundance fitness (aPCA) (normalised: wild type 0, dead -1); higher = more abundant; growth selection in yeast, the domain comes from the species named
Settings: Homo sapiens

| Variant | abundance fitness |
| --- | --- |
| RLRTTITPEQLEILYQKYLLDSNPTRKMLDHIAHEVYLKKRVVQVWFQNTRARERK [G37Y] | -0.919 ± 0.16 |
| RLRTTITPEQLEILYQKYLLDSNPTRKMLDHIAHEVILKKRVVQVWFQNTRARERK [G37I] | -0.891 ± 0.17 |
| RLRTTITPEQLEILYQKYLLDSNPTRKMLDHIAHEVALKKRVVQVWFQNTRARERK [G37A] | -0.366 ± 0.084 |
| RLRTTITPEQLEILYQKYLLDSNPTRKMLDHIAHEVWLKKRVVQVWFQNTRARERK [G37W] | -0.92 ± 0.11 |
| RLRTTITPEQLEILYQKYLLDSNPTRKMLDHIAWEVGLKKRVVQVWFQNTRARERK [H34W] | -0.095 ± 0.1 |
| RLRTTITPEQLEILYQKYLLDSNPTRKMLDHIALEVGLKKRVVQVWFQNTRARERK [H34L] | -0.225 ± 0.084 |
| RLRTTITPEQLEILYQKYLLDSNPTRKMLDHIAMEVGLKKRVVQVWFQNTRARERK [H34M] | -0.092 ± 0.14 |
| RLRTTITPEQLEILYQKYLLDSNPTRKMLDHIAKEVGLKKRVVQVWFQNTRARERK [H34K] | 0.213 ± 0.16 |
| RLRTTITPEQLEILYQKYLLDSNPTRKMLDHIAGEVGLKKRVVQVWFQNTRARERK [H34G] | 0.062 ± 0.093 |
| RLRTTITPEQLEILYQKYLLDSNPTRKMLDHIAIEVGLKKRVVQVWFQNTRARERK [H34I] | -0.632 ± 0.2 |
| RLRTTITPEQLEILYQKYLLDSNPTRKMLDHIAQEVGLKKRVVQVWFQNTRARERK [H34Q] | -0.017 ± 0.1 |
| RLRTTITPEQLEILYQKYLLDSNPTRKMLDHIAPEVGLKKRVVQVWFQNTRARERK [H34P] | -0.739 ± 0.12 |
| RLRTTITPEQLEILYQKYLLDSNPTRKMLDHIASEVGLKKRVVQVWFQNTRARERK [H34S] | 0.009 ± 0.089 |
| RLRTTITPEQLEILYQKYLLDSNPTRKMLDHIAYEVGLKKRVVQVWFQNTRARERK [H34Y] | -0.012 ± 0.12 |
| RLRTTITPEQLEILYQKYLLDSNPTRKMLDHIANEVGLKKRVVQVWFQNTRARERK [H34N] | -0.044 ± 0.18 |
| RLRTTITPEQLEILYQKYLLDSNPTRKMLDHIAHEVGKKKRVVQVWFQNTRARERK [L38K] | -0.712 ± 0.17 |
| RLRTTITPEQLEILYQKYLLDSNPTRKMLDHIAHEVGMKKRVVQVWFQNTRARERK [L38M] | -0.009 ± 0.13 |
| RLRTTITPEQLEILYQKYLLDSNPTRKMLDHIAHEVGHKKRVVQVWFQNTRARERK [L38H] | -0.737 ± 0.19 |
| RLRTTITPEQLEILYQKYLLDSNPTRKMLDHIAHEVGEKKRVVQVWFQNTRARERK [L38E] | -0.869 ± 0.12 |
| RLRTTITPEQLEILYQKYLLDSNPTRKMLDHIAHEVGFKKRVVQVWFQNTRARERK [L38F] | -0.819 ± 0.22 |
| RLRTTITPEQLEILYQKYLLDSNPTRKMLDHIAHEVGIKKRVVQVWFQNTRARERK [L38I] | -0.786 ± 0.23 |
| RLRTTITPEQLEILYQKYLLDSNPTRKMLDHIAHEVGVKKRVVQVWFQNTRARERK [L38V] | -0.163 ± 0.078 |
| RLRTTITPEQLEILYQKYLLDSNPTRKMLDHIAHEVGTKKRVVQVWFQNTRARERK [L38T] | -0.616 ± 0.13 |
| RLRTTITPEQLEILYQKYLLDSNPTRKMLDHIAHEVGRKKRVVQVWFQNTRARERK [L38R] | -0.846 ± 0.086 |

| Variant | abundance fitness |
| --- | --- |
| RLRTTITPEQLEILYQKYLLDSNPTRKMLDHIAHEVGGKKRVVQVWFQNTRARERK [L38G] | -0.972 ± 0.092 |
| RLRTTITPEQLEILYQKYLLDSNPTRKMLDHIAHEVGYKKRVVQVWFQNTRARERK [L38Y] | -1 ± 0.41 |
| RLRTTITPEQLEILYQKYLLDSNPTRKMLDHIAHEVGSKKRVVQVWFQNTRARERK [L38S] | -0.601 ± 0.099 |
| RLRTTITPEQLEILYQKYLLDSNPTRKMLDHIAHEVGNKKRVVQVWFQNTRARERK [L38N] | -1.02 ± 0.24 |
| RLRTTITPEQLEILYQKYLLDSNPTRKMLDHIAHEVGWKKRVVQVWFQNTRARERK [L38W] | -0.746 ± 0.11 |
| RLRTTITPEQLEILYQKYLLDSNPTRKMLDHIAHEVGQKKRVVQVWFQNTRARERK [L38Q] | -0.734 ± 0.16 |
| RLRTTITPEQLEILYQKYLLDSNPTRKMLDHIAHEVGCKKRVVQVWFQNTRARERK [L38C] | -0.329 ± 0.14 |
| RLRTTITPEQLEILYQKYLLDSNPTRKMLDHIAHCVGLKKRVVQVWFQNTRARERK [E35C] | -0.351 ± 0.12 |
| RLRTTITPEQLEILYQKYLLDSNPTRKMLDHIAHGVGLKKRVVQVWFQNTRARERK [E35G] | -0.487 ± 0.092 |
| RLRTTITPEQLEILYQKYLLDSNPTRKMLDHIAHLVGLKKRVVQVWFQNTRARERK [E35L] | -0.205 ± 0.079 |
| RLRTTITPEQLEILYQKYLLDSNPTRKMLDHIAHNVGLKKRVVQVWFQNTRARERK [E35N] | -1.01 ± 0.28 |
| RLRTTITPEQLEILYQKYLLDSNPTRKMLDHIAHWVGLKKRVVQVWFQNTRARERK [E35W] | -0.509 ± 0.11 |
| RLRTTITPEQLEILYQKYLLDSNPTRKMLDHIAHFVGLKKRVVQVWFQNTRARERK [E35F] | -0.557 ± 0.15 |
| RLRTTITPEQLEILYQKYLLDSNPTRKMLDHIAHAVGLKKRVVQVWFQNTRARERK [E35A] | -0.127 ± 0.091 |
| RLRTTITPEQLEILYQKYLLDSNPTRKMLDHIAHTVGLKKRVVQVWFQNTRARERK [E35T] | 0.063 ± 0.092 |
| RLRTTITPEQLEILYQKYLLDSNPTRKMLDHIAHKVGLKKRVVQVWFQNTRARERK [E35K] | -0.356 ± 0.15 |
| RLRTTITPEQLEILYQKYLLDSNPTRKMLDHIAHSVGLKKRVVQVWFQNTRARERK [E35S] | -0.224 ± 0.083 |
| RLRTTITPEQLEILYQKYLLDSNPTRKMLDHIAHIVGLKKRVVQVWFQNTRARERK [E35I] | -0.029 ± 0.14 |
| RLRTTITPEQLEILYQKYLLDSNPTRKMLDHIAHHVGLKKRVVQVWFQNTRARERK [E35H] | -0.274 ± 0.13 |
| RLRTTITPEQLEILYQKYLLDSNPTRKMLDHIAHQVGLKKRVVQVWFQNTRARERK [E35Q] | -0.016 ± 0.1 |
| RLRTTITPEQLEILYQKYLLDSNPTRKMLDHIAHVVGLKKRVVQVWFQNTRARERK [E35V] | -0.255 ± 0.092 |
| RLRTTITPEQLEILYQKYLLDSNPTRKMLDHIAHMVGLKKRVVQVWFQNTRARERK [E35M] | -0.417 ± 0.11 |
| RLRTTITPEQLEILYQKYLLDSNPTRKMLDHIAHYVGLKKRVVQVWFQNTRARERK [E35Y] | -0.556 ± 0.14 |
